Source: paper PMC4300268

Molecular target: Plu4264 from Photorhabdus luminescens subsp. laumondii TTO1 (Photorhabdus luminescens subsp. laumondii TTO1)
Test: crystal structure

Plu4264 from Photorhabdus luminescens subsp. laumondii TTO1 (natural protein)
stoichiometry N: 2
